Results published in patent US10358467B2, “Therapeutic targets for cancer progression” (The Regents of the University of California, priority 2015, dated 2019).

How the values were obtained:
[1] = molecular target: T1, GST-Gαi3 (Rattus norvegicus, UniProt P08753); test: Competition with His-DAPLE-CT for binding to GST-Gαi3 (pulldown)
T1 construct: made in house; host or cells: E. coli BL21 (DE3)
Procedure: Purified GST-Gαi3 or GST alone (5 μg) were immobilized on glutathione-Sepharose beads and incubated with binding buffer [50 mM Tris-HCl (pH 7.4), 100 mM NaCl, 0.4% (v:v) Nonidet P-40, 10 mM MgCl2, 5 mM EDTA, 30 μM GDP, 2 mM DTT, protease inhibitor mixture] for 90 min at room temperature as described before (Garcia-Marcos et al, 2011a; Ghosh et al, 2010; Ghosh et al, 2008; Lin et al, 2011). Lysates (˜250 μg) of Cos7 cells expressing appropriate myc-DAPLE constructs or purified His-DAPLE-CT (aa 1650-2028) protein (3 μg) were added to each tube, and binding reactions were carried out for 4 h at 4° C. with constant tumbling in binding buffer [50 mM Tris-HCl (pH 7.4), 100 mM NaCl, 0.4% (v:v) Nonidet P-40, 10 mM MgCl2, 5 mM EDTA, 30 μM GDP, 2 mM DTT]. Beads were washed (4×) with 1 mL of wash buffer [4.3 mM Na2HPO4, 1.4 mM KH2PO4 (pH 7.4), 137 mM NaCl, 2.7 mM KCl, 0.1% (v:v) Tween 20, 10 mM MgCl2, 5 mM EDTA, 30 μM GDP, 2 mM DTT] and boiled in Laemmli's sample buffer. In some experiments the ‘active’ conformation of the G protein was stabilized by replacing GDP in the binding and wash buffers with 30 μM GTPγS or a mixture of 30 μM GDP/30 μM AlCl3/10 mM NaF. Immunoblot quantification was performed by infrared imaging following the manufacturer's protocols using an Odyssey imaging system (Li-Cor Biosciences).

[2] = test system: NIH3T3 cells; test: 3D spheroid matrigel invasion assay; assay type: cell-based; settings: in response to Wnt5a
Procedure: NIH3T3 cell invasion assay in 3D culture was performed according to the manufacturer's protocol (Trevigen, Cultrex 3D Spheroid BME Cell Invasion Assay, catalog #3500-096-K). Briefly, non-invasive NIH3T3 cells (˜3000 cells) transfected with empty vector (control) or myc-DAPLEconstructs were incubated first in the Spheroid Formation extracellular matrix (ECM) containing 0.2% FBS for 3 days. Invasion matrix was then added and layered on top with media containing FBS. […] Photographs were analyzed and pseudocolored by Image J to reflect cell density.

[3] = test system: DLD1 cells; test: Anchorage-dependent tumor growth assay; assay type: cell-based, human; settings: DLD1 cells stably expressing constructs, 2-3 weeks
Procedure: Anchorage-dependent growth was monitored on solid (plastic) surface as described previously (Franken et al, 2006). Briefly, anchorage-dependent growth was monitored on solid (plastic) surface. Approximately ˜1000 DLD1 cells stably expressing various DAPLE constructs were plated in 6-well plates and incubated in 5% CO2 at 37° C. for ˜2 weeks in 0.2% FBS growth media. Colonies were then stained with 0.005% crystal violet for 1 h. The remaining DLD1 cells were lysed and analyzed by immunoblotting to confirm DAPLE construct expression. Each experiment was analyzed in triplicate.

[4] = test system: β-Catenin/TCF/LEF pathway in DLD1 7TGP cells; test: β-Catenin reporter assay (7TGP); assay type: cell-based, human; settings: stable expression, starved and stimulated with Wnt5a, versus vector control
Procedure: These assays were carried out using the well-established reporter 7×Tcf-eGFP (7TGP) (Fuerer & Nusse, 2010). Stable cells lines expressing this reporter were generated by lentiviral transduction and subsequent selection using standard procedures. Lentiviral infection and selection were performed according to standard procedures. Briefly, 10 cm plates DLD1 cells at 70% confluency were incubated with media containing 8 μg/mL polybrene and 10 μl of lentivirus for 6 h. After 24 hours post infection, selection of puromycin-resistant clones was initiated by adding the antibiotic at 2 μg/ml final concentration. The resultant DLD1-7TGP stable cells were subsequently transfected with various myc-DAPLE constructs and selected for G418 resistance as described earlier in methods. The DLD1-7TGP cells stably expressing myc-DAPLE were incubated overnight at 0.2% FBS, analyzed by fluorescence microscopy, and photographed prior to lysis. Whole cell lysates samples were then boiled in Laemmli's sample buffer and GFP protein expression was monitored by immunoblotting.

T1 sequence (P08753 whole entry): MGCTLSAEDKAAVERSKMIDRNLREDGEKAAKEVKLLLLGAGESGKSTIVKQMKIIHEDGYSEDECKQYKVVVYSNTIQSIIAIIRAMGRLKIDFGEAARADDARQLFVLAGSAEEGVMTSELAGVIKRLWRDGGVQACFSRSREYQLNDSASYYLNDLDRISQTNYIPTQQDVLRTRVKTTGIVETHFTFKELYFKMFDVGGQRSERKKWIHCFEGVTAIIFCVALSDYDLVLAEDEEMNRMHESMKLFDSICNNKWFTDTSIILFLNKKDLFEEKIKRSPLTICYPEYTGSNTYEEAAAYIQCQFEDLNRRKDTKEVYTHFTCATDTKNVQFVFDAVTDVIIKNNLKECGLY

Molecule	competition with His-DAPLE-CT for binding to GST-Gαi3 [1]	invasion of matrigel by spheroids [2]	adherent colonies per well (tumor growth) [3]	eGFP signal (Wnt transcriptional activity) [4]
DAPLE-V2-WT: short isoform of DAPLE (SEQ ID NO: 23, 552 aa) expressed in cells (protein, listed as Homo sapiens, myc tag) MSVLSPGDLKPKRGSPHRGSLDRTDASTDLAMRSWPSELGSRTCSTSATTTAPSNSTPIARHPGRTKGYNSDDNLCEPSLEFEVPNHRQYVSRPSSLESSRNTSSNSSPLNLKGSSEQLHGRSESFSSEDLIPSRDLATLPREASTPGRNALGRHEYPLPRNGPLPQEGAQKRGTAPPYVGVRPCSASPSSEMVTLEEFLEESNRSSPTHDTPSCRDDLLSDYFRKASDPPAIGGQPGPPAKKEGAKMPTNFVAPTVKMAAPTSEGRPLKPGQYVKPNFRLTEAEAPPSVAPRQAQPPQSLSLGRPRQAPVPPASHAPASRSASLSRAFSLASADLLRASGPEACKQESPQKLGAPEALGGRETGSHTLQSPAPPSSHSLARERTPLVGKAGSSCQGPGPRSRPLDTRRFSLAPPKEERLAPLHQSATAPAIATAGAGAAAAGSGSNSQLLHFSPAAAPAARTKPKAPPRSGEVATITPVRAGLSLSEGDGVPGQGCSEGLPAKSPGRSPDLAPHLGRALEDCSRGSVSKSSPASPEPGGDPQTVWYEYGCV		Neither the WT nor the FA mutant of DAPLE-V2 could trigger invasion	can inhibit tumor growth	showed inhibition of eGFP
DAPLE-V2-FA: DAPLE-V2 with F194A mutation disrupting Gαi3 binding, expressed in cells (protein, left off: small tags and cut ends) MSVLSPGDLKPKRGSPHRGSLDRTDASTDLAMRSWPSELGSRTCSTSATTTAPSNSTPIARHPGRTKGYNSDDNLCEPSLEFEVPNHRQYVSRPSSLESSRNTSSNSSPLNLKGSSEQLHGRSESFSSEDLIPSRDLATLPREASTPGRNALGRHEYPLPRNGPLPQEGAQKRGTAPPYVGVRPCSASPSSEMVTLEEALEESNRSSPTHDTPSCRDDLLSDYFRKASDPPAIGGQPGPPAKKEGAKMPTNFVAPTVKMAAPTSEGRPLKPGQYVKPNFRLTEAEAPPSVAPRQAQPPQSLSLGRPRQAPVPPASHAPASRSASLSRAFSLASADLLRASGPEACKQESPQKLGAPEALGGRETGSHTLQSPAPPSSHSLARERTPLVGKAGSSCQGPGPRSRPLDTRRFSLAPPKEERLAPLHQSATAPAIATAGAGAAAAGSGSNSQLLHFSPAAAPAARTKPKAPPRSGEVATITPVRAGLSLSEGDGVPGQGCSEGLPAKSPGRSPDLAPHLGRALEDCSRGSVSKSSPASPEPGGDPQTVWYEYGCV		Neither the WT nor the FA mutant of DAPLE-V2 could trigger invasion		not

Second part, led by results:

competition with His-DAPLE-CT for binding to GST-Gαi3 [1]	Molecule	invasion of matrigel by spheroids [2]	adherent colonies per well (tumor growth) [3]	eGFP signal (Wnt transcriptional activity) [4]
competed	KB-752: synthetic GEF peptide similar to the GBA motif (SRVTWYDFLMEDTKSR) [reference compound]			
competed	His-GIV-CT: His-GIV-CT (aa 1660-1870, containing its GEF motif) (protein, left off: small tags and cut ends) ISETLESRHHKIKTGSPGSEVVTLQQFLEESNKLTSVQIKSSSQENLLDEVMKSLSVSSDFLGKDKPVSCGLARSVSGKTPGDFYDRRTTKPEFLRPGPRKTEDTYFISSAGKPTPGTQGKIKLVKESSLSRQSKDSNPYATLPRASSVISTAEGTTRRTSIHDFLTKDSRLPISVDSPPAAADSNTTAASNVDKVQESRNSKSRSREQQS			
